Holding throughout (conditions): both partners purified
Test [1] deals with T1, WT calmodulin (UniProt P0DP23 1-149).
T1 construct: calmodulin, recombinant; Legends say the recombinant CaMs were not FLAG tagged in the patch-clamp experiments; nothing is said of tags for ITC; also called WT CaM; WT-CaM
Kind of test: ITC; Microcal VP-ITC, 25°C, 10 mM Mops, 2 mM EGTA, 1 mM TCEP, 150 mM KCl, pH 7, 0 Ca2+; NaV1.5CTD (55-75 uM) or NaV1.6CTD (73-110 uM) peptide and WT CaM or D96V-CaM (5-15 uM); fitted to a model of 1 binding site per monomer. In general terms: Isothermal titration calorimetry measures the heat released or taken up as one component is titrated into another.

Test [2] concerns the target T1, WT calmodulin. Kind of test: ITC; Microcal VP-ITC, 25°C, 10 mM Mops, 2 mM EGTA, 1 mM TCEP, 150 mM KCl, 1.93 mM CaCl2, pH 7, 10 uM free Ca2+; NaV1.6CTD (73-110 uM) peptide and WT-CaM (12 uM) or D96V-CaM (16 uM); fitted to a one-binding site per monomer model.
In test [3] the target is T2, wild-type calmodulin (UniProt P0DP23 1-149).
T2 construct: Calmodulin (CaM), recombinant; GenBank M19381.1 (mouse CaM I) is printed only for the transgene of the mice, not for the recombinant protein; also called WT CaM; CaM
As to the kind of experiment: ITC; in the presence of 10 uM free Ca2+; NaV1.6CTD peptide and WT CaM or D96V-CaM.

Test [4] has as its target T2, wild-type calmodulin. As to the kind of experiment: ITC; 0 Ca2+; Microcal VP-ITC, 25°C, 10 mM Mops, 2 mM EGTA, 1 mM TCEP, 150 mM KCl, pH 7; NaV1.5CTD (55-75 uM) or NaV1.6CTD (73-110 uM) peptides and WT CaM or D96V-CaM (5-15 uM); 28 injections; fitted to a model of 1 binding site per monomer.

As a reminder, the stoichiometry N is a count of units in the complex or per binding partner. For orientation: Kd means a measure of binding affinity in units of concentration.

B1: hNaV1.6CTD peptide (residues 1891-1918 of human NaV1.6) (peptide)
peptide: RRKQEEVSAVVLQRAYRGHLARRGFICK
notes: human NaV1.6 carboxy terminal domain stretch with the IQ motif, residues 1891-1918; source: synthetic peptide (LifeTein), at least 90% purity by HPLC
Consider B1, for which the “stoichiometry N” value with WT calmodulin [1] and with WT calmodulin [2] was 1 throughout.

B2: hNaV1.6CTD peptide (residues 1891-1918 of human NaV1.6) (peptide)
peptide: RRKQEEVSAVVLQRAYRGHLARRGFICK
notes: Carboxy terminal domain peptide with the IQ motif of human NaV1.6, residues 1891-1918; source: synthetic peptide (LifeTein), at least 90% purity by HPLC
Turning to B2, the Kd was determined as 132 nM with wild-type calmodulin [3] and 243 nM with wild-type calmodulin [4].

The values are drawn from publication PMC10065082 (The Journal of Clinical Investigation, 2023).
